Target: T1, His-CTNNBL1(Δ1–76) (UniProt Q8WYA6 77-563)
T1 sequence (looked up): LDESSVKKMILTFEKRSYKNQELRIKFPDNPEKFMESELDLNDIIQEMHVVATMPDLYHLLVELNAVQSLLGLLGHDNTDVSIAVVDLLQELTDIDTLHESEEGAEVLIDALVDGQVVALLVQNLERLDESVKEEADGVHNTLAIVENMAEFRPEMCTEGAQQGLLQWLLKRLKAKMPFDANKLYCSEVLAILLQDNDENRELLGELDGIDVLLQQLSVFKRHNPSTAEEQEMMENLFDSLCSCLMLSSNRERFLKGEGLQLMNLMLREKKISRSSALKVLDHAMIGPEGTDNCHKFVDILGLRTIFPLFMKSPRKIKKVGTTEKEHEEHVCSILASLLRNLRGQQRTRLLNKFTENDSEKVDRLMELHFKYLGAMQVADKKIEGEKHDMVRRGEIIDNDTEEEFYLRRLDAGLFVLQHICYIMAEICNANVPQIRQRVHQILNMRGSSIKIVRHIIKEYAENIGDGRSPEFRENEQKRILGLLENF
Test: ITC

B1: CDC5L NLS3 peptide (peptide)
peptide: KKRKRKR
dH1 (site 1): -1.48 ± 0.11 kcal/mol
dH2 (site 2): -3.28 ± 0.15 kcal/mol

— PMC3089553 (The Journal of Biological Chemistry, 2011)
